We go through 28 molecules from US20230381229A1.

Test [1] deals with PD-1 expressed on cells (human). The test is described as follows: flow cytometry, Jurkat/PD-1 cells.
Another test has as its target PD-1-Fc (Homo sapiens). Put plainly: ForteBio, PD-1-Fc.
Test [2] has as its target PD-1 expressed on cells (human). The test is described as follows: flow cytometry, cells expressing PD-1.

Chain of PD-1-Fc (Homo sapiens) (chain, as listed by the source limits assumed): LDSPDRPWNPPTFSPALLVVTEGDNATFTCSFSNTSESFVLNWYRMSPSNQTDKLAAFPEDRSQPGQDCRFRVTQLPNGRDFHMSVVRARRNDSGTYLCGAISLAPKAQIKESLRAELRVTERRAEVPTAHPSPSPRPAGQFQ
Chain of PD-1 expressed on cells (human) (chain, as listed by the source): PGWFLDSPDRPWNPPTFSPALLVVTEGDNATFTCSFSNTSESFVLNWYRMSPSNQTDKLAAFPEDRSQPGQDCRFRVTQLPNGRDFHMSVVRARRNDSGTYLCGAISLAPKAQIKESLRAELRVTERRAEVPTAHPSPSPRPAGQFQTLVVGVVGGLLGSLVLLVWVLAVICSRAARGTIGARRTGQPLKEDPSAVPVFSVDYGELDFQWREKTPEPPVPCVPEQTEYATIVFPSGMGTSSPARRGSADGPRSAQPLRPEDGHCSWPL

B1: variant PD-L2 IgV-Fc H15Q (Fc fusion)
chain: LFTVTVPKELYIIEQGSNVTLECNFDTGSHVNLGAITASLQKVENDTSPHRERATLLEEQLPLGKASFHIPQVQVRDEGQYQCIIIYGVAWDYKYLTLKVKA
Regarding B1, in test [1], the Fold increase over wildtype PD-L2 IgV-Fc was found to be 1.63 and the MFI at 50 nM turned out to be 16000. In addition, the Fortebio binding to PD-1-Fc Response Units (Response Units) with PD-1-Fc (Homo sapiens) amounted to 0.007.

B2: variant PD-L2 IgV-Fc H15Q, E44D, R76G, I85F (Fc fusion)
chain: LFTVTVPKELYIIEQGSNVTLECNFDTGSHVNLGAITASLQKVDNDTSPHRERATLLEEQLPLGKASFHIPQVQVGDEGQYQCIFIYGVAWDYKYLTLKVKA
For B2, the MFI at 50 nM in test [1] amounted to 2880.

B3: variant PD-L2 IgV-Fc I13V, H15Q, T47A, R76G, V89D (Fc fusion)
chain: LFTVTVPKELYIVEQGSNVTLECNFDTGSHVNLGAITASLQKVENDASPHRERATLLEEQLPLGKASFHIPQVQVGDEGQYQCIIIYGDAWDYKYLTLKVKA
Regarding B3, the Fortebio binding to PD-1-Fc Response Units (Response Units) with PD-1-Fc (Homo sapiens) was determined as 1.6.

B4: variant PD-L2 IgV-Fc H15Q, T47A (Fc fusion)
chain: LFTVTVPKELYIIEQGSNVTLECNFDTGSHVNLGAITASLQKVENDASPHRERATLLEEQLPLGKASFHIPQVQVRDEGQYQCIIIYGVAWDYKYLTLKVKA
As for B4, in test [1], the Fold increase over wildtype PD-L2 IgV-Fc was 2.7 and the MFI at 50 nM stood at 26600. Besides, the Fortebio binding to PD-1-Fc Response Units (Response Units) in the test with PD-1-Fc (Homo sapiens) was 0.016.

B5: variant PD-L2 IgV-Fc H15Q, V89D (Fc fusion)
chain: LFTVTVPKELYIIEQGSNVTLECNFDTGSHVNLGAITASLQKVENDTSPHRERATLLEEQLPLGKASFHIPQVQVRDEGQYQCIIIYGDAWDYKYLTLKVKA
In test [1], B5 showed a Fold increase over wildtype PD-L2 IgV-Fc of 1.8 and an MFI at 50 nM of 17700. The molecule also had a Fortebio binding to PD-1-Fc Response Units (Response Units) with PD-1-Fc (Homo sapiens) of 0.31.

B6: variant PD-L2 IgV-Fc E44D, V89D, W91R (Fc fusion)
chain: LFTVTVPKELYIIEHGSNVTLECNFDTGSHVNLGAITASLQKVDNDTSPHRERATLLEEQLPLGKASFHIPQVQVRDEGQYQCIIIYGDARDYKYLTLKVKA
With B6, the MFI at 50 nM in test [1] was 614.

B7: variant PD-L2 IgV-Fc Q82R, V89D (Fc fusion)
chain: LFTVTVPKELYIIEHGSNVTLECNFDTGSHVNLGAITASLQKVENDTSPHRERATLLEEQLPLGKASFHIPQVQVRDEGQYRCIIIYGDAWDYKYLTLKVKA
For the molecule B7, the MFI at 50 nM in test [1] amounted to 45000.

B8: variant PD-L2 IgV-Fc H15Q, Q72H, Q74R, R76G, I86T (Fc fusion)
chain: LFTVTVPKELYIIEQGSNVTLECNFDTGSHVNLGAITASLQKVENDTSPHRERATLLEEQLPLGKASFHIPHVRVGDEGQYQCIITYGVAWDYKYLTLKVKA
As to B8, in test [1], the MFI at 50 nM came out at 4050.

B9: variant PD-L2 IgV-Fc N24D (Fc fusion)
chain: LFTVTVPKELYIIEHGSNVTLECDFDTGSHVNLGAITASLQKVENDTSPHRERATLLEEQLPLGKASFHIPQVQVRDEGQYQCIIIYGVAWDYKYLTLKVKA
With B9, in test [1], the Fold increase over wildtype PD-L2 IgV-Fc was 0.14 and the MFI at 50 nM was 1410. The Fortebio binding to PD-1-Fc Response Units (Response Units) with PD-1-Fc (Homo sapiens) is -0.039.

B10: variant PD-L2 IgV-Fc H15Q, C23S, I86T (Fc fusion)
chain: LFTVTVPKELYIIEQGSNVTLESNFDTGSHVNLGAITASLQKVENDTSPHRERATLLEEQLPLGKASFHIPQVQVRDEGQYQCIITYGVAWDYKYLTLKVKA
As to B10, in test [1], the MFI at 50 nM stood at 830.

B11: variant PD-L2 IgV-Fc H15Q, K65R (Fc fusion)
chain: LFTVTVPKELYIIEQGSNVTLECNFDTGSHVNLGAITASLQKVENDTSPHRERATLLEEQLPLGRASFHIPQVQVRDEGQYQCIIIYGVAWDYKYLTLKVKA
In test [1], B11 yielded a Fold increase over wildtype PD-L2 IgV-Fc of 1.37 and an MFI at 50 nM of 13500. The molecule also registered a Fortebio binding to PD-1-Fc Response Units (Response Units) with PD-1-Fc (Homo sapiens) of -0.001.

B12: variant PD-L2 IgV-Fc H15Q, Q72H, V89D (Fc fusion)
chain: LFTVTVPKELYIIEQGSNVTLECNFDTGSHVNLGAITASLQKVENDTSPHRERATLLEEQLPLGKASFHIPHVQVRDEGQYQCIIIYGDAWDYKYLTLKVKA
In turn, B12 had an MFI at 50 nM in test [1] of 12600.

B13: variant PD-L2 IgV-Fc V89D (Fc fusion)
chain: LFTVTVPKELYIIEHGSNVTLECNFDTGSHVNLGAITASLQKVENDTSPHRERATLLEEQLPLGKASFHIPQVQVRDEGQYQCIIIYGDAWDYKYLTLKVKA
In test [1], B13 had a Fold increase over wildtype PD-L2 IgV-Fc of 0.34 and an MFI at 50 nM of 3360. The same molecule came in with a Fortebio binding to PD-1-Fc Response Units (Response Units) in the test with PD-1-Fc (Homo sapiens) of 0.005.

B14: variant PD-L2 IgV-Fc I13V, H15Q, R76G, I85F (Fc fusion)
chain: LFTVTVPKELYIVEQGSNVTLECNFDTGSHVNLGAITASLQKVENDTSPHRERATLLEEQLPLGKASFHIPQVQVGDEGQYQCIFIYGVAWDYKYLTLKVKA
In test [1], B14 came in with a Fold increase over wildtype PD-L2 IgV-Fc of 0.48 and an MFI at 50 nM of 4740. The molecule further registered a Fortebio binding to PD-1-Fc Response Units (Response Units) with PD-1-Fc (Homo sapiens) of -0.04.

B15: Wild Type PD-L2 IgV (Fc fusion)
chain: LFTVTVPKELYIIEHGSNVTLECNFDTGSHVNLGAITASLQKVENDTSPHRERATLLEEQLPLGKASFHIPQVQVRDEGQYQCIIIYGVAWDYKYLTLKVKA
Molecule B15 registered an MFI at 50 nM in test [1] of 9840.

B16: variant PD-L2 IgV-Fc H15Q, N24S, T47A, Q72H, R76G, V89D (Fc fusion)
chain: LFTVTVPKELYIIEQGSNVTLECSFDTGSHVNLGAITASLQKVENDASPHRERATLLEEQLPLGKASFHIPHVQVGDEGQYQCIIIYGDAWDYKYLTLKVKA
Consider B16, for which the Fortebio binding to PD-1-Fc Response Units (Response Units) in the test with PD-1-Fc (Homo sapiens) worked out at 0.4.

B17: variant PD-L2 IgV-Fc H15Q, S67L, R76G, I85F (Fc fusion)
chain: LFTVTVPKELYIIEQGSNVTLECNFDTGSHVNLGAITASLQKVENDTSPHRERATLLEEQLPLGKALFHIPQVQVGDEGQYQCIFIYGVAWDYKYLTLKVKA
In test [1], B17 returned a Fold increase over wildtype PD-L2 IgV-Fc of 0.29 and an MFI at 50 nM of 2870. This molecule displayed a Fortebio binding to PD-1-Fc Response Units (Response Units) in the test with PD-1-Fc (Homo sapiens) of 0.025.

B18: variant PD-L2 IgV-Fc I13V, H15Q, T47A, Q82R, V89D (SEQ ID NO 725) (Fc fusion)
chain: LFTVTVPKELYIVEQGSNVTLECDFDTGSHVNLGAITASLQKVENDTSPHRERATLLEEQLPLGKASFHIPQVQVRDEGQYRCIIIYGDAWDYKYLTLKVKA
For B18, in test [1], the Fold increase over wildtype PD-L2 IgV-Fc worked out at 6.2 and the MFI at 50 nM worked out at 61000. In the test with PD-1-Fc (Homo sapiens), the Fortebio binding to PD-1-Fc Response Units (Response Units) was found to be 1.45.

B19: variant PD-L2 IgV-Fc I13V, E44D, Q82R, V89D (Fc fusion)
chain: LFTVTVPKELYIVEHGSNVTLECNFDTGSHVNLGAITASLQKVDNDTSPHRERATLLEEQLPLGKASFHIPQVQVRDEGQYRCIIIYGDAWDYKYLTLKVKA
For the molecule B19, in test [1], the Fold increase over wildtype PD-L2 IgV-Fc is 4.59 and the MFI at 50 nM worked out at 45200. The molecule further came in with a Fortebio binding to PD-1-Fc Response Units (Response Units) with PD-1-Fc (Homo sapiens) of 1.28.

B20: variant PD-L2 IgV-Fc S67L, I85F (Fc fusion)
chain: LFTVTVPKELYIIEHGSNVTLECNFDTGSHVNLGAITASLQKVENDTSPHRERATLLEEQLPLGKALFHIPQVQVRDEGQYQCIFIYGVAWDYKYLTLKVKA
Regarding B20, in test [1], the Fold increase over wildtype PD-L2 IgV-Fc came out at 0.05 and the MFI at 50 nM was 529. Moreover, the Fortebio binding to PD-1-Fc Response Units (Response Units) with PD-1-Fc (Homo sapiens) was -0.005.

B21: variant PD-L2 IgV-Fc H15Q, T47A, Q72H, R76G, I86T (Fc fusion)
chain: LFTVTVPKELYIIEQGSNVTLECNFDTGSHVNLGAITASLQKVENDASPHRERATLLEEQLPLGKASFHIPHVQVGDEGQYQCIITYGVAWDYKYLTLKVKA
In test [1], B21 yielded a Fold increase over wildtype PD-L2 IgV-Fc of 3.26 and an MFI at 50 nM of 32100. In the test with PD-1-Fc (Homo sapiens), this molecule returned a Fortebio binding to PD-1-Fc Response Units (Response Units) of 0.512.

B22: variant PD-L2 IgV-Fc E44D (Fc fusion)
chain: LFTVTVPKELYIIEHGSNVTLECNFDTGSHVNLGAITASLQKVDNDTSPHRERATLLEEQLPLGKASFHIPQVQVRDEGQYQCIIIYGVAWDYKYLTLKVKA
As for B22, in test [1], the Fold increase over wildtype PD-L2 IgV-Fc was determined as 0.3 and the MFI at 50 nM is 2930. In the test with PD-1-Fc (Homo sapiens), this molecule returned a Fortebio binding to PD-1-Fc Response Units (Response Units) of -0.006.

B23: variant PD-L2 IgV-Fc G28V, Q72H, R76G, I86T (Fc fusion)
chain: LFTVTVPKELYIIEHGSNVTLECNFDTVSHVNLGAITASLQKVENDTSPHRERATLLEEQLPLGKASFHIPHVQVGDEGQYQCIITYGVAWDYKYLTLKVKA
In test [1], B23 had a Fold increase over wildtype PD-L2 IgV-Fc of 0.57 and an MFI at 50 nM of 5560. This molecule gave a Fortebio binding to PD-1-Fc Response Units (Response Units) in the test with PD-1-Fc (Homo sapiens) of 0.003.

B24: variant PD-L2 IgV-Fc H15Q, Q82R, V89D (Fc fusion)
chain: LFTVTVPKELYIIEQGSNVTLECNFDTGSHVNLGAITASLQKVENDTSPHRERATLLEEQLPLGKASFHIPQVQVRDEGQYRCIIIYGDAWDYKYLTLKVKA
Consider B24, for which, in the test with PD-1-Fc (Homo sapiens), the Fortebio binding to PD-1-Fc Response Units (Response Units) worked out at 1.2.

B25: variant PD-L2 IgV-Fc I13V, H15Q, T37A, E44D, S48C, S67L, Q82R, V89D (Fc fusion)
chain: LFTVTVPKELYIVEQGSNVTLECNFDTGSHVNLGAIAASLQKVDNDTCPHRERATLLEEQLPLGKALFHIPQVQVRDEGQYRCIIIYGDAWDYKYLTLKVKA
B25: in the test with PD-1-Fc (Homo sapiens), the Fortebio binding to PD-1-Fc Response Units (Response Units) is 1.25.

B26: variant PD-L2 IgV-Fc I13V, H15Q, E44V, T47A, Q82R, V89D (Fc fusion)
chain: LFTVTVPKELYIVEQGSNVTLECNFDTGSHVNLGAITASLQKVVNDASPHRERATLLEEQLPLGKASFHIPQVQVRDEGQYRCIIIYGDAWDYKYLTLKVKA
Regarding B26, in test [1], the MFI at 50 nM came out at 61000.

B27: variant PD-L2 IgV-Fc S67L, V89D (Fc fusion)
chain: LFTVTVPKELYIIEHGSNVTLECNFDTGSHVNLGAITASLQKVENDTSPHRERATLLEEQLPLGKALFHIPQVQVRDEGQYQCIIIYGDAWDYKYLTLKVKA
On to B27, for which the MFI at 50 nM in test [1] is 16000.

B28: variant PD-L1 ECD-Fc I36S, M41K, M97L, K144Q, R195G, E200K, H202Q, L206F (Fc fusion)
chain: FTVTVPKDLYVVEYGSNMTIECKFPVEKQLDLAALSVYWEKEDKNIIQFVHGEEDLKVQHSSYRQRARLLKDQLSLGNAALQITDVKLQDAGVYRCLISYGGADYKRITVKVNAPYNKINQRILVVDPVTSEHELTCQAEGYPQAEVIWTSSDHQVLSGKTTTTNSKREEKLFNVTSTLRINTTTNEIFYCTFRGLDPEKNQTAEFVIPELPLAHPPNER
For the molecule B28, the MFI at 20 nM in test [2] is 3500.
